Data reported in publication PMC2659761 (Journal of molecular biology, 2008).

T1: Cif full-length (cycle inhibiting factor) (Escherichia coli (EPEC and EHEC)), P0DUW5
T1 chain: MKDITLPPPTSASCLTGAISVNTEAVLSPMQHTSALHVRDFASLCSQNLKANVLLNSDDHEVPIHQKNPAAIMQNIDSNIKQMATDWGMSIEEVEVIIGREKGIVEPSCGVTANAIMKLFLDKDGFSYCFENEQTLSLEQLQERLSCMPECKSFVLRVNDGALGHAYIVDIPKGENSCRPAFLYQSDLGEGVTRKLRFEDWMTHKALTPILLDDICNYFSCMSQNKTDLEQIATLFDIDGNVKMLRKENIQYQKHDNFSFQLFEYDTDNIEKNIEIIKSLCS


How the values were obtained:
[1] = target: T1, Cif full-length (cycle inhibiting …); assay: SEC; settings: remark: other sources report otherwise
[2] = target: the molecule itself; assay: SEC

Row | Binder | stoichiometry N [1] | stoichiometry N [2]
1 | Cif full-length (cycle inhibiting factor), P0DUW5 1-282 (natural protein) MKDITLPPPTSASCLTGAISVNTEAVLSPMQHTSALHVRDFASLCSQNLKANVLLNSDDHEVPIHQKNPAAIMQNIDSNIKQMATDWGMSIEEVEVIIGREKGIVEPSCGVTANAIMKLFLDKDGFSYCFENEQTLSLEQLQERLSCMPECKSFVLRVNDGALGHAYIVDIPKGENSCRPAFLYQSDLGEGVTRKLRFEDWMTHKALTPILLDDICNYFSCMSQNKTDLEQIATLFDIDGNVKMLRKENIQYQKHDNFSFQLFEYDTDNIEKNIEIIKSLCS | 2 | 
2 | Cif(100-282)-His, cycle inhibiting factor residues 100-282 with C-terminal His6 tag (the crystallized construct) (domain or fragment) REKGIVEPSCGVTANAIMKLFLDKDGFSYCFENEQTLSLEQLQERLSCMPECKSFVLRVNDGALGHAYIVDIPKGENSCRPAFLYQSDLGEGVTRKLRFEDWMTHKALTPILLDDICNYFSCMSQNKTDLEQIATLFDIDGNVKMLRKENIQYQKHDNFSFQLFEYDTDNIEKNIEIIKSLCS |  | 2
